Measured values: US20240287501A1 (VIB VZW, published 2024)

What was measured:
GFP-tagged SIS1 = target: T1, GFP-tagged SIS1 (Saccharomyces cerevisiae, UniProt P25294 1-352); assay: co-immunoprecipitation, Nb coupled to NHS-agarose beads, lysate of the yeast strain expressing the GFP-tagged target, Western blot anti-GFP
T1 construct: Yeast GFP Fusion Collection strain; also called Yeast GFP fusion collection GFP(+)22, E5; not shown: GFP tag
T1 sequence (looked up): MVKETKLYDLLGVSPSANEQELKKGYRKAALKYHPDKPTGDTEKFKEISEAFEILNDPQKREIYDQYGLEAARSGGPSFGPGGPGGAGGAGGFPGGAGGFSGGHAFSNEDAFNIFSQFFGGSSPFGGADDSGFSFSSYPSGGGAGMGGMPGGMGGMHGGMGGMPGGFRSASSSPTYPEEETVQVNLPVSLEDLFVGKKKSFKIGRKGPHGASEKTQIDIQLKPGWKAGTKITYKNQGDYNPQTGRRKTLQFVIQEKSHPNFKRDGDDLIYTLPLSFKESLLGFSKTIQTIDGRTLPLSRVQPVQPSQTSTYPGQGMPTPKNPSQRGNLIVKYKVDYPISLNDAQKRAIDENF
Description: One SIS1-specific Nanobody (44=Nb clone CA17444 corresponding to SEQ ID NO: 9), three ALD6-specific Nanobodies (53=CA17453-SEQ ID NO: 10, 54=CA17454-SEQ ID NO: 11, 60=CA17460-SEQ ID NO: 12), two BMH1-specific Nanobodies (58=CA17458-SEQ ID NO: 13, 59=CA17459-SEQ ID NO: 14) were characterized by co-immunoprecipitation assays. Each target-specific Nanobodies was covalently linked to NHS-agarose beads. The beads that were functionalized with these target-specific Nanobodies were incubated for an hour at 4° C. on a rotating device with either an EBY100 lysate or the lysate of the engineered Yeast strain expressing the target (Yeast GFP fusion collection reference for SIS1: GFP(+)22, E5, for ALD6: GFP(+)15, F1, for BMH1: GFP(+)27, D5) as a GFP-tagged protein. After washing, these beads were resuspended in SDS-PAGE loading dye and analyzed on SDS-PAGE (FIG. 8A). Separated proteins were transferred to a PVDF membrane and the Western blot (FIG. 8B) was developed with GFP-specific antibody to confirm the presence of GFP-tagged targets.

[1] = target: T2, SIS1 (native, from EBY100 lysate) (Saccharomyces cerevisiae, UniProt P25294 1-352); assay: co-IP, Nb on NHS-agarose beads, EBY100 yeast lysate, SDS-PAGE
T2 construct: mature; Endogenous untagged protein; also called YNL007C
T2 sequence (looked up): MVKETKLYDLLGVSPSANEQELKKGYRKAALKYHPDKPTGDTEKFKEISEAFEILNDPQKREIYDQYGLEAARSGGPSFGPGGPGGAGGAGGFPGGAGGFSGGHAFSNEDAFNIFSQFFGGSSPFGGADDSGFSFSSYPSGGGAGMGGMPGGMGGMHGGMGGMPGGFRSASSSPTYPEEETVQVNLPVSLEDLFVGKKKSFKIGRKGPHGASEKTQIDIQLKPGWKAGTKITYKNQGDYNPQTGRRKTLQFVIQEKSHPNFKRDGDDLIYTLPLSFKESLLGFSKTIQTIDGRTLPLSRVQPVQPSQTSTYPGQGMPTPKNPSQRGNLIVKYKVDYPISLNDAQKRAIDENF

GFP-tagged SXM1 = target: T3, GFP-tagged SXM1 (Saccharomyces cerevisiae, UniProt Q04175 1-944); assay: co-immunoprecipitation, Nb coupled to NHS-agarose beads, lysate of the yeast strain expressing the GFP-tagged target, Western blot anti-GFP
T3 construct: Yeast GFP Fusion Collection strain; also called Yeast GFP fusion collection GFP(+)04, H9; not shown: GFP tag
T3 sequence (looked up): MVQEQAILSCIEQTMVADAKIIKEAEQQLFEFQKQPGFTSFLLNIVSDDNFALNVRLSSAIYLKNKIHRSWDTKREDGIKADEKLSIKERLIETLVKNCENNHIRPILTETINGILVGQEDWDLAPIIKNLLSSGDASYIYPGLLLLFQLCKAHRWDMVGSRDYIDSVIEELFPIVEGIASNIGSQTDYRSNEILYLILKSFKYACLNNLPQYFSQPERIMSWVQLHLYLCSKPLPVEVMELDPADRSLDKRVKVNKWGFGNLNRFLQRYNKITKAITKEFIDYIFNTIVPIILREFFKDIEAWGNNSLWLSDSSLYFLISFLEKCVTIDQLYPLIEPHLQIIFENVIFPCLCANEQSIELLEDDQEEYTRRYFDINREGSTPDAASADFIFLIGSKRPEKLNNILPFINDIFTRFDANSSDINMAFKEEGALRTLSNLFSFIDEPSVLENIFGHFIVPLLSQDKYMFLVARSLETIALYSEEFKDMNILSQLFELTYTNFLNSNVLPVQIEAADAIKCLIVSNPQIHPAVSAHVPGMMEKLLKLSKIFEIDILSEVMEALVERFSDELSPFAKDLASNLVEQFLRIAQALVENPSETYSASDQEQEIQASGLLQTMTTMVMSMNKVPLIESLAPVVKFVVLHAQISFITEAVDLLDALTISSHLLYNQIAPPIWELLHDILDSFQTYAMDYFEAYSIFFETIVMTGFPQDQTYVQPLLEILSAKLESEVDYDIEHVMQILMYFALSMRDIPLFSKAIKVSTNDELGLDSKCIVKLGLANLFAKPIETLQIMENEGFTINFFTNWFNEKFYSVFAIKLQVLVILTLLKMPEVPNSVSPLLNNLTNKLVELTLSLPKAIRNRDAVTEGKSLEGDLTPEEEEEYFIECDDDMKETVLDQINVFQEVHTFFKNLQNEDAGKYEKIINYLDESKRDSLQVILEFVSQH
Description: One SXM1-specific Nanobody (30=Nb clone CA17530 corresponding to SEQ ID NO: 18) was characterized by co-immunoprecipitation assays. The SXM1-specific Nanobody was covalently linked to NHS-agarose beads. The beads that were functionalized with this SXM1-specific Nanobody were incubated for an hour at 4° C. on a rotating device with either an EBY100 lysate or the lysate of the engineered Yeast strain expressing SXM1 GFP(+)04, H9) as a GFP-tagged protein. After washing, these beads were resuspended in SDS-PAGE loading dye and analyzed on SDS-PAGE (FIG. 9A). Separated proteins were transferred to a PVDF membrane and the Western blot (FIG. 9B) was developed with GFP-specific antibody to confirm the presence of GFP-tagged SXM1.

[2] = target: T4, SXM1 (native, from EBY100 lysate) (Saccharomyces cerevisiae, UniProt Q04175 1-944); assay: co-IP, Nb on NHS-agarose beads, EBY100 yeast lysate, SDS-PAGE
T4 construct: mature; Endogenous untagged protein; also called YDR395W
T4 sequence (looked up): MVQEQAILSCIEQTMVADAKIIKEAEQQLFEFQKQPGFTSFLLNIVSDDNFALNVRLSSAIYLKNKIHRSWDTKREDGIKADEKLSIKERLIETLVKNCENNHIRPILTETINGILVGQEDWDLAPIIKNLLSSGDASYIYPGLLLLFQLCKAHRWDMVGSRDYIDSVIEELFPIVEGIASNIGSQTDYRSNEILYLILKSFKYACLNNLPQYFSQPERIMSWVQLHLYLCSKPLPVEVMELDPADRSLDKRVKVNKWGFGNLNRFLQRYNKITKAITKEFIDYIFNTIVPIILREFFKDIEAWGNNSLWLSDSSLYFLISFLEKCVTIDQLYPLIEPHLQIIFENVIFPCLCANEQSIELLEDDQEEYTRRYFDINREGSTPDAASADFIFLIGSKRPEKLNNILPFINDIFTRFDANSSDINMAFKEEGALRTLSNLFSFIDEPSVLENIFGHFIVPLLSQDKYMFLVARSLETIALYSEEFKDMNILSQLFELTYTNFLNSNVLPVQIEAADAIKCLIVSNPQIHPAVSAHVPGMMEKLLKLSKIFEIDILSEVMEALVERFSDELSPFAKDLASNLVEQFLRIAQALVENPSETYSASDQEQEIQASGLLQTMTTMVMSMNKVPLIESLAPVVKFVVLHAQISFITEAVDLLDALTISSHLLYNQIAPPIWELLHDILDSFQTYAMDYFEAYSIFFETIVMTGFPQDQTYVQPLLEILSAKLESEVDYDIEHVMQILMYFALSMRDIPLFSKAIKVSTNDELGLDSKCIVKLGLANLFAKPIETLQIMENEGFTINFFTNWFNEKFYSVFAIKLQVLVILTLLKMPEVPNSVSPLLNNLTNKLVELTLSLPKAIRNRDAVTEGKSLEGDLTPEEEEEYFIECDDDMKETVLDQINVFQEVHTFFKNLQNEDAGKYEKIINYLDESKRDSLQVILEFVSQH

[3] = target: T5, Rat Vesicular GLUtamate Transporter 1 (full-length, HEK293T lysate of Example 7) (rat, UniProt Q62634 1-560); assay: NANEX: capture from DDM lysate of HEK293T cells, elution with the same Nb
T5 construct: mature; Produced in HEK293T cells as published (Schenck et al., 2017), solubilised in DDM; also called rVGLUT1; rat VGLUT1
T5 sequence (looked up): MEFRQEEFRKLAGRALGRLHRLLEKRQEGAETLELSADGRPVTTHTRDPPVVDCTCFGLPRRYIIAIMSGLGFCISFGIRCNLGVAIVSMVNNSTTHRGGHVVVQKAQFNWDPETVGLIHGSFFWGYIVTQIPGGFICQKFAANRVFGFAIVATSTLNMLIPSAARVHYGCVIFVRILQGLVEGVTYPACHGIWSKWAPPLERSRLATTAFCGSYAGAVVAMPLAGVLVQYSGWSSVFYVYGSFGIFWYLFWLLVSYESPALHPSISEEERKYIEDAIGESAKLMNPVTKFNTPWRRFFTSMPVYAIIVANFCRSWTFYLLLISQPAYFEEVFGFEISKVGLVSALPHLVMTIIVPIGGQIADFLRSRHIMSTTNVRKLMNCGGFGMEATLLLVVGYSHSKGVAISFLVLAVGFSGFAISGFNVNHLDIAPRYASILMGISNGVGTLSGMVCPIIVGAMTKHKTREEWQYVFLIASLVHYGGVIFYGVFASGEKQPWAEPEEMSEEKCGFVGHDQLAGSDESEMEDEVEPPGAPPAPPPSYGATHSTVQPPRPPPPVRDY

GFP-tagged BMH1 = target: T6, GFP-tagged BMH1 (Saccharomyces cerevisiae, UniProt P29311 2-267); assay: co-IP, Nb on NHS-agarose beads, lysate of GFP-fusion yeast strain, SDS-PAGE and anti-GFP Western blot
T6 construct: Yeast GFP Fusion Collection strain; also called Yeast GFP fusion collection GFP(+)27, D5; not shown: GFP tag
T6 sequence (looked up): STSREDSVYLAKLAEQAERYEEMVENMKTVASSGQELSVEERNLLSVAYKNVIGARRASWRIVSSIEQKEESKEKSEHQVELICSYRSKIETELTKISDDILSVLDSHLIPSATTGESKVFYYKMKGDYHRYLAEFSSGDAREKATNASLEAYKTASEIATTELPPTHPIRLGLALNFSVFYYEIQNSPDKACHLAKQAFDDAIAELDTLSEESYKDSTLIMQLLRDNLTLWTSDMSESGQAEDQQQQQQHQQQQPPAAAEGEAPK
From the text: After washing, these beads were resuspended in SDS-PAGE loading dye and analyzed on SDS-PAGE (FIG. 8A). Separated proteins were transferred to a PVDF membrane and the Western blot (FIG. 8B) was developed with GFP-specific antibody to confirm the presence of GFP-tagged targets.
For each target selection of binders in this example, as detailed in Table 2, after 3 rounds of selection by panning using NANEX technology, individual clones were isolated from the enriched sub-library by plating tenfold serial dilutions of the overnight-grown phage-infected E. coli TG1 cells in LB. 96 individual clones were picked and grown in a 96-well plate containing LB supplemented with 100 μg/ml ampicillin. Plasmids containing the Nanobody encoding genes were purified, sequenced and grouped into sequence families (Material and methods). A representative member of each sequence family was selected. Their encoding plasmid was transformed into the E. coli WK6 expression strain to express and purify each Nanobody of interest. […] After washing, these beads were resuspended in SDS-PAGE loading dye and analyzed on SDS-PAGE (as in the Figure specified in Table 2 for each target). […] For each target-specific Nanobody analysed in this way, the co-immunoprecipitation with the EBY100 lysate gives a predominant band corresponding to the expected molecular weight of the target protein. […]

[4] = target: T7, BMH1 (native, from EBY100 lysate) (Saccharomyces cerevisiae, UniProt P29311 2-267); assay: co-IP, Nb on NHS-agarose beads, EBY100 yeast lysate, SDS-PAGE
T7 construct: mature; Endogenous untagged protein; also called YER177W
T7 sequence (looked up): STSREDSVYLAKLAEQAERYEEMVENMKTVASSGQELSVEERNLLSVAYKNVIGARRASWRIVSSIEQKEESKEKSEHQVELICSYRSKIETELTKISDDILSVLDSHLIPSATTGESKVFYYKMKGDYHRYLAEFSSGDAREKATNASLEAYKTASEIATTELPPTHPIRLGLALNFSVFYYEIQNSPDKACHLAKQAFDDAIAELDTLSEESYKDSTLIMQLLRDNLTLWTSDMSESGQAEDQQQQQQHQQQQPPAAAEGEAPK

B1: CA17444 (VHH)
VHH: QVQLVESGGGLVQPGGSLRLSCAASGFTLDYYAIGWFRQAPGKEREGVSCISSSDGSTVYADSVKGRFTISRDNAKNTVYLQMSNLKPEDTAVYYCATDQITSTGCPDFDSWGQGTQVTVSS
notes: C-terminal 6xHis-EPEA tag is part of the entry
GFP-tagged SIS1
  binding result: binds
[1]
  binding result: binds

B2: CA17530 (VHH)
VHH: QVQLVESGGGLVQTGGSLRLSCVVSKTLFSINAMAWYRQSPGKPRELVAGWTSGGRTSYGDSVKGRFTISRDNAENTLYLQMNDVKPEDTAVYHCAADYLVVAGKPGYDYAYWGQGTQVTVSS
notes: as for B1
GFP-tagged SXM1
  binding result: binds
[2]
  binding result: binds

B3: CA17875 (VHH)
VHH: QVQLQESGGGLVQAGGSLRLSCAASGRSVRTWSMGWFRQPPGKERELVAGISWSGSGTYHADSVKGRFTISRDNAKNMVYLQMNSLKPEDTAVYYCAAGQTGWNPGSDFHRWGKGTQVTVSS
notes: C-terminal 6xHis-EPEA tag is part of the entry; also called rVGLUT1-specific trapper/stripper
[3]
  binding result: binds

B4: CA17459 (VHH)
VHH: QVQLVESGGGEVQTGGSLRLSCTASGSRLNFGSWNWYRKRGENYRELVAAMGPSTGHTHYGDSMKGRVTISLNAAKDTLFLQMNSLKPEDTAVYYCAADLDGLGFPRGSFYGMDYWGKGTQVTVSS
notes: as for B1
GFP-tagged BMH1
  binding result: binds
[4]
  binding result: binds
